Results: a protein production outcome set (Wang et al. 2014)

Experiment: label from the status in PepcDB records
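Note: failed if final PepcDB status was selected cloned or expressed and not failed if soluble or beyond.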

Sequence | protein production
MIIRDQLILSIDNDLRDLIKARDIGVIYVYREETGEPEPGPSIEDIDLPEPLLEALKKRGIRRLYRFQYDAYKSILNGENVVITAGTGTGKTEAFLLPILSKIYEKRTPNPQAMLVYPTKALARDQLQRINDYLGYGVFSAAVYDGDTPRRIRQKISANPPDIVVTNPDMIHVGLVLSPTIRRFVKASQFMVIDELHVYEGVFGSNVKCVFERINKYRRNNPPQYIGSSATIGNPREHAETLFGVPVKVIEGPLRRRGIAYHVLVSAGKLSRWTVTAALASVLARRGLRFIVFVDSQQMAELIARIAWRSYGVDIMVHRAGLPADERKMIESKLRAGEISGVAATPTLELGIDIGFLDAVIMAAPPPSFAKYLQRAGRAGRRGRKGYVFTVLADDPIDAYYERNPKRYFEQEIPPLYMDPENEEVLRIHLLALLLEQGRIRRDELKRAWLRVAERLRYERLVAWVGPYIYPNYRLARKIFMEYMSIRGSGPQVVIYDVDEKNIVGYRELPQAVLDLHPDAVYLLNRRVYKSIEIDVDKKIARVKRLPDDTPYYTRPLYTVDLVDYSILASRTSSRGIPLAYAWVKLSINVEGYIVRNYWETEKAGIKYWFDHPITYTYNTKALLLKYPENPEWDYMSNAEAFHAIEHALISAARPVCGAALGEMGGISYPSGDIVIYDGAPGGSGLAKLLFERFEKAEEIAYEIVSKCDCEDGCPRCIYSPYCGNNNQVLSRRKATYVLGNILKRGAVKVMEPIKNRYGKPIV | failed
MKQKNVYIVIGFMLFALFFGAANLIYPAFLGIYSGHQILWSIIGFCLTGVSLPLLGVIAVAKSGSGDVESLARPISKWYAIFYSSILYLSIGPFFAIPRTGATSFSVGIAPILGDNTTNKAIYAILFFGLSYFLAIKPSKLAENIGKFLTPTLLVVISILVIASFVHPAGNYGDAFNAGVGVNNAFKDFPFIAGLIQGYGTMDALASLVFAILVIEATKQFGAKTDKEMTKITLISGAIAILLLALVYIFVGRIGATSQSLFPFIDGSFTLHGNPVNGGQILSHASRFYLGGIGQAFLAVVIFLACLTTSTGLITSSAEYFHKLVPALSHIAWATIFTLLSAFFYFGGLSVIINWSAPVLFLLYPLTVDLIFLVLAQKCFNNDPIVYRTTIGLTFIPAIFDALLTLSQMTGLFHLPEAVVTFFQKTVPLGQFSMGWIIFAAIGFLIGLILSKTKKS | failed
SQPLLDRSIPDFTAFTTVDDWLSAIKMVQYRDSFLTAGFTSLQLVTQMTSEDLLRIGITLAGHQKKILNSIHSMRVQISQSPTAMA | not failed
MNEVKSLTTAEGPTKLLNLQLKDLGDSLIDVALWGKLAEDVYSNIKSQPSGPVFSSWKFDEDFAISRHSSKLKIYNKSLYPFSTTRDSSVSRSFNCFGETPQELLDLGGRNYVFKIMVKHEAKHNQSSTYKMISLTDVLNVIQSFFESASTLNDIEQEIITVSGNSVGTSIGTTTQAEINFVDVDNLDNNEDNAYYISTPKPITKRFLATSKHVQQSSTKP | not failed
MKNKSYYFLTIIRYAVYLLIGMCAVFYGELKNTEMYYFIVFFLMYIIVTQFRIYYLRNRKYVSVSMVVDLVLVCFMYSYVRNFSFLFLFISVLDSSIMLSKTQAYASGIICSVVIIIQNVKIPFSLKAGTNLINILFSILLIFTLVFIGDSFREEQKRKIEAQGLYDRLRESEEKLRGAYEKLERYSETVEELSILRERNRISREIHDSVGHTLSAVLMQLQALLYLIKSDKEESLKTVEEMTGFVRGGIENVRRTVRELKPTDFDRFEGVFAIEEMIRKYKKLTSADIRFILSKEKRSLSSDESFISYRVVQEALNNAIRHGKASLVEVSMQFNQDRLYIRIKDNGVGTDGIKKGFGMTGMEERVKKLGGNIEFYSERDKGFEVTVNLPKSSEEKNSIINY | failed
MLGGQYYLIAFILAVIVVWFTTPLINHWGRRAGYVDQPSARKMHHRPMVRLGGVSIFLGSLVALLVVWNLGAFGAMSTKGEWEVWGVVLGGLAFFGIGLFDDLFDLSPFSRLLAQVAIASVVWNMGVRIDFFTLPFLGNLVYLNILSLPITVIWLVGLANAINWIDGLDGLAAGVCGIAAVVLFVLCLFMEQSEAALIAAALAGGALGFLRYNFNPAQIFMGDGGAYFMGFTLGAVAVIGLVKVAAMATVAVTAVLLPYLVLAVPILDMSVVILSRVIKGKSPFKADKGHLHHRLINAGISHRLTVLFIYALTLWAGSLALGFSNIPSGWGFAIGATVLLIYLGWQVWRNSRNVGEQD | failed
MSLLSLLIALAADRSLSAKVWQFNFYYQHYHHFFSKNFTAKQGTTASAVFIILPVIATYLLLDVIDNSVLQLLFSTVILIVCFGCTTTRKSYKSYLHSAFRGEETTTEMHHEQLLSDKNLPEMGFGQALIWLNYRYYIAIMLFFTVFGAAGAVFYRLLTTVIEHKKAKCMASAAENKAQAEVSSVDESDIESEEHHQAVHEGNVAPNIMNGCQNHHDVLFWLDWLPVRIASFGYMFVGHFSKAMPVWLESLFDSQKPTHQVLIDVAEKSEDLLVNENDCTAEPCLLVRLAKRNVLLVLAVISILTLSGLLN | failed
VALCVLRRSDGRVVLENTLSQQWLGNGSERDQLCSGWIEQAFDPARPNSSDYFETADGRHLYLSSAPTRYNGEDVLFCAFSDISARKQIEAALEEAKRLADTANEAKTLFLATMSHEIRTPLYGVLGTLELLSRTQ | failed
MKSLSEHVDFSESKTGNSSSESETGQTLIFLLADLAQRQQIDNTLQSFLNESNAEEILLVANIRCADDEVWLRKYCARFPSVNAILNRRAKSATVLEAQGRWLARYRSQVVLSVDCDESGVKILRKVLPFFTPPVAMEMQKSTLSCQPGEQGLTLIIPAHDCDLYLTDCLASALVIESDKTLVVVDDGSLDDTHGVIAGFASQYPEIIDHISICKASGLPAVPRNIGLASVQTDTFGFIDADDWISPGEYTSALYEMQQMSADIATAAGFTRHYPDRTESLLQKCFTIPENEPANVLEGSFFSNIWNRIYARSILLRSGAYFPRTHFSEDFCFSVWSHFYAEKTIQVSVSFYHHRYGRQGSTTDNRAGSGAFSHITEFHRELEMYLADPFMRKALATILRKRMGSFQYTLKLLPPELIQPFKTALQEMLKPLNRYFISDKEPNKRDIATFAALGISDLLYQRPRSKFLGMRNWGRKWLGMYQQLTKRESHENS | failed
MMALTMDFSTQLLEHQVTAILLLDDQRQIHYANPAAEQLFSQSAQRMAQHAFDDLFHSPQFDLSTLMLPLNTGQSVTDSDVRIMIDEQPLYIELTSSPVAINKSLYLLVEIRQIE | failed
MNAKSRPSRKLLKGAVIGPAQLMADQPFSVIRAVSRRSDRDHVGVLAAGVAFFSLLASFPALVTLITLYGLFTGPQEAVRQIAEAGVYLPRGVHDLLAEHLPRLAQASPGSLGLGAITSLLFSIWSASRGMGAMVDGVDIAYQVGDGRGFLRKSILVVGLTLAGLVVSAIALPLIVGLPALFDRLPLPLEIRWALALARWPLLFALVLGALAVLFRYAPDRENPRWRWVTPGALAAATLWILASGGLSLYVGLVSSYDQTYGTLAGVVVAMMWLYLASYAVLLGAEINAELEDRGMERIKKDQAAAKAAVARA | failed
MTIKVFSPKYPTELEEFYAERIADNPLGFIQRLDLLPSISGFVQKLREHGGEFFEMREGNKLIGICGLNPINQTEAELCKFHINSAYQSQGLGQKLYESVEKYAFIKGYTKISLHVSKSQIKACNLYQKLGFVHIKEEDCVVELGEETLIFPTLFMEKIL | failed
MSNENKTIHDFELNLICDFFSNMERQGPGSPEVTLKALSFIDNLTEKSLIADIGCGTGGQTMVLAGHVTGQVTGLDFLSGFIDIFNRNARQSGLQNRVTGIVGSMDDLPFRNEELDLIWSEGAIYNIGFERGLNEWRKYLKKGGYLAVSECSWFTDERPAEINDFWMDAYPEIDTIPNQVAKIHKAGYLPVATFILPENCWTDHYFTPKVAAQKIFLTKYAGNKIAEEFSMLQSIEEELYHKYKEYYGYTFFIAKKIRLLEHHHHHH | not failed
MQIKELAELTGVSVRTLHHYDKIGLLVPQKDDWNGYRIYSEKDVDKLQQILFFKELDFPLKKIQQILDDPLFDKNVALDMQRHLLIEKKQRIETMLATLDLTIKNEKGEITMTNKEKFTGFDFSSNPYEEEARKLWGDKVVEKANEKVNNMSEKEQLTLKESFDAEFRHLASVRKLTPESEEAQLEIDHFFHYLNDTHGNIYSLEAFASLGEMYVNDERFTKNIDQFGDGLSQFLQEAMTIYAKNK | not failed
QYCWQHRFPTGYFSICDRYMNGTCPEGNSCKFAHGNAELHEWEERRDALKMKLNKA | not failed
